Data on 24 sequences can be found in a protein production outcome set (Wang et al. 2014).

The nature of the data set: label from the status in PepcDB records.
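Also: failed if final PepcDB status was selected cloned or expressed and not failed if soluble or beyond.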

Consider “MCIAVIGGMDRLERHYRQEAARTGFELRVFSQSENNIATKLKRFDALVIFTNKVSHRVRNEAMSAAKLNGIPVFQYHSCGVCTLRDCLNCLVLPAGGGTKLEHHHHHH”, for which the protein production entry is given as “failed”. The value for “MCKLIKCELLKLKSMLGAILAFFFPLLLVSIGLLNIYTGSVKISGTSEMWNAIYVQSSSLYGGILFPVFLSALVSLQWRVEFKNNNINNILITDKSHKDIYLSKIFSTFVIAFINIILYIIIIFISVKVLLPKETVKAFIFYGPIIGLLFSLPLICIQHFLSMNFKNFALPLVIGIVLSLPNFVASCYSFSTFIPYSYICKGMFFNVKNSLNVECPIYIFILTALIFVASVSLGTKVFKNKEFR” was “failed”. The value for “MCLKNNAKDEIMDSTKAWYQSRTIWGALIAVFAPLFSIAGFDLPAGLHGELAEGLVTVAGGIGGLIALYGRLSATRSIR” was “failed”.

Regarding “MCNGKVVNKGDDCQSLTFRRRSGWAMIDRSAVMEKTMDSRIQDVLDIYHAMIETEHNSPRELPPGGRDGGQDQRLRAVGQATGQFINILAKSLKSPTILELGTSFGYSGIWLAEAARASGGRLITMEMHDYKSAYARDMAVKAGLAEHVEFKVGDAVQMIGALSSGIDFVLVDLWKDLYVPCLEAFYPKLNPGAIIVADNMLRPGGDDLKRYSDAVRAKPWISSVLLPVGSGLEVSRFD”, the protein production result is “failed”. The value for “MCQESVIVMQATQPLQTVSQAVPKEFLQADGGFNPNVAMFGIAILLMLANVFGYWQWGLPHWLCFSCSVLALHLSGTVIHDASHNAAHRNTIINAVLGHGSALMLGFAFPVFTRVHLQHHANVNDPENDPDHFVSTGGPLFLIAARFFYHEIFFFKRRLWRKYELLEWFLSRLVLFTIVFLGIHYGFIGFVMNYWFVPALIVGIALGLFFDYLPHRPFQERNRWKNARVYPSPILNWLIFGQNYHLIHHLWPSIPWYQYQNTYHITKPILDEKGCDQSLGLLEGKNFWSFLYDVFLGIRFHGHNNSQSSDKP” was “failed”; that for “MCRALLSITMQIPLVKWTEGLNIKTIVSISYVCYAVAAIGFAFSSSIFWLLSTAVLFTAAESMLLNHMQTFVSRLAPNHIRGGYFAFFGPHWDISRTIGPFLGGMIFIKFGGAALFLAIAGIMALGGIAQYRAVSRLKKLVLYSTWY” was “failed”. “MCRTRPSCGRMEEKRPVDAAGAVALIGIAALLAFNQVVIKVTGGGFGPLFQAGLRSALGLVFVLIWMRLLRKPIVFPRAALMGALITGLLFTVEFMALFAALDLTSVSRVSILFYSMPVWLALGGHFLLPGERLSGMRVLGLMLAMGGVVLALLERDAAHVSLLGDALAVFAAMCWAAIALGVRLTPLGRVPAEMQLMSQLVISAPLLLVLAPLTGETLRTPGLLHWAGLLFQAVGVVGLGFLIWFRLLAVYRANGVASFSFLSPVLAVILGWLLLGEQVGPLVWLALGLVAAGIVLINRR”: the protein production result is recorded as “failed”.

“MCRYCLIVAARVGAVDDARFDMTAPDLIPIETLFGMPEFSRAQISPDGRLVAYLAPWRGRLNIWVRPVGQGTARRLTGDDTRNIDGFSWTRDTRYLLFIQDTQGDENWHLHRVEVDGAEAVGGKARTVDLTPYSGVRVMGLELSAAFPSKAFVQMNLRTPDLIDLYEVDIESAETRVAALNPGRFVRWIVTPNGPMHAFIINDVGDHELARYENGVFTTLAKLSGRDQPIGPMPLMVAADGESVLVGCNAGSDHTYLAAIDLATGKCRVIDSQPDCSLDTPRPEADPRFPSSLITNPVTGELLAVRYLGKRQQIRPLNLRFAAVLNSLQRLSDGEIGYISCDAGGRQWVAEFWDDRHPGTTWFYEHESGEAHVLGERFSALSAERLVSVRPIDVISRDGLTLPCHVTLPVGFDAKDEPRALPTVLLVHGGPWYRDACVYDPEVQFLANRGYAVLQVNFRGSTGYGKAFMQAAIGEFSGRMHDDLIDGLDWLIGQGIADPARVAIYGCSYGGYAALVGASFTPERFTATISYSGISDLRMLVNGVVPFVQPTLINTYLSYMGDPDIETQNRDMLARSPVSRLDCISKPLLVVHGANDVRVAKAQADMVVERVRANGVEVDYLLNEREGHWFINEDSNIELYRKIERFLARHLRGE”: the protein production entry was “failed”. To “MCSALVVAAPHSGSGKTTVTAAIARYHRVQGRKVTVFKVGPDFIDPMILRQASGELVYQLDLWLVGEQGCRALLHRAAMDSDLILIEGVMGLFDGTPSSADLAKYFNIPVLGVIDAKAMAQTFAAVTFGLAKFCEDLPFSGVIANRVNTERHAELLSVSLPKAFRFYGRIPKDDTITLPERHLGLVQAQELSDIDVQLDKAASHIANTGLTELPSQVEFFAQEDDNQENIIEGALAGTRIIIIRDSAFSFIYAANIAFLTQTGAELIYCSAMADVHLPDGDILYIPGGYPELYAEQLMNNVTFLSDIRAFSASNKPIVAECGGMLYLLEQLTDMEGQQFSMLGLMPGKATMQKKLAAIGSQWVPLPSFADAAEDSADNIMRGHSFHYSCAEIELEPSSQTTHHPSERAGEYVYQHNNILASYMHWYFPSNPSLTLRIFDKARYLLEHHHHHH” belongs “not failed”; to “MCSLEKRDRLFILKLTGDGEHRLNPTLLDSLRSTINQIRSDPSFSQSVLITTSDGKFFSNGYDLALAESNPSLSVVMDAKLRSLVADLISLPMPTIAAVTGHASAAGCILAMSHDYVLMRRDRGFLYMSELDIELIVPAWFMAVIRGKIGSPAARRDVMLTAAKVTADVGVKMGIVDSAYGSAAETVEAAIKLGEEIVQRGGDGHVYGKMRESLLREVLIHTIGEYESGSSVVRSTGSKL”, “failed”; to “MCVRHDAGHGCLRAREGRRRPSMAPPCRKKINKPVLVRVDEFCSAAVQAGNPIVPSTLETTHWATRRRPKEAGMASKMFKTVGRVAAGVAALSIAAAATTASADSRHHRHKRDKGGDVAAAAITAGVIGLVIGAAIADDGHRDDRYYDRRYAPPPPPPPTRYGHGYGYGYDYDYAPRPYYGDRECWTTREYNRRSGSYYERTVCR”, “failed”. As to “MDAEAAKMIGAGLAAIGMIGSGIGVGNIWANLIATVGRNPAAKSTVELYGWIGFAVTEAIALFALVVALILLFAA”, the protein production result is on record as “failed”.

As to “MDAKHIEKVFVKKVPAKSNKAQVKYPFDENSVNVLIIGLDKASNRSTYDLHRTDTILFLNINFKDKKVKGISIPRDTLTEIYKVGKWDKINSAFGYGGGEKEEGFFYTMETVSKLLGGMPIEYYVGFDLDAVRKVVNILGGVYVNVEVPVKVKTKWVNIDLKPGYQKLNGIETLYYALWRKTPGGDIDRIKRDKELILSVFEQLKESNKIITLPEIYWKIRRHFYTNLSLQQITSLAYFAQNMKKEDIVFESIPGDYFNYMGVSYWKPDYEGIKKLVKDLFGYDIEIDLKMPEKYKYARRIIVKAKKENNISYLEHHHHHH”, the protein production entry is “not failed”.

Take “MDAKQLSKRLATVGAFVQPGARVADIGSDHAYLPANLALNHQISYGVAGEVVRGPFENARHEIQKLGLTDRLVARLADGLAAIEPADRIDTVTIAGMGGPLIRHILEQGPTQLAGVQRLVLEPNVGEATVREWLAANQFQIVAERILAEDGHTYEILCADRVDHQVTYTTAEQMFGPFLLAEKSPVFIAKWQRELQRVNAAVAQMQRAKVIPEEQLALAHAKIKLIEGVLTDASK”: the protein production entry is given as “failed”.

“MDAKVAFSPHSDANGRLDEIGADIDTAQSSVLFSLAFLGQMTRGAIGPALGRALERPEVHVMGIADAEVRAGNLGLNVLTPDNRRRVVRAAALTGNVPPPFLTEPSGLAGVDGNQRGTRMHHKFVVLDFDKPTARVYLGSYNFSNPADDENGENLVVVRDRTVATSYMIEALRMYDHLEHHHHHH”: the protein production entry is recorded as “failed”.

“MDALTVGELRRRVHALVLGKRQRVYSGAMFLVEVVHHPELSAMLGLEDNKLLLAMIAQRLQMQSDYFQVARHSSDSFMVWAPDLDPRSARDVAPEVLDALSQPYELRGQPLIVGFRLSGALYAQHGACFDELERSLHIAMLHLDESAGAAWNMFEPSMLEHQRHYQGLEHHHHHH”: the protein production entry is “not failed”. The value for “MDAVKKAILGEVLEEEEAYEVMRALMAGEVSPVRAAGLLVALSLRGERPHEIAAMARAMREAARPLRVHRRPLLDIVGTGGDGKGLMXLSTLAALVAAAGGVAVAKHGXRAASSRAGSADLLEALGVDLEAPPERVGEAIEELGFGFLFARVFHPAMRHVAPVRAELGVRTVFXLLGPLTXPAGADAYVLGVFSPEWLAPMAEALERLGARGLVVHGEGADELVLGEXRVVEVGKGAYALTPEEVGLKRAPLEALKGGGPEEXAALARRLLKGEEKGPLADAVALAAGAGFYAAGKTPSLKEGVALAREVLASGEAYLLLERYVAFLRA” was “not failed”; that for “MDCKKVIADYWNLRSSTYTNGENGFDAEERIIWRRMLENFLPPGQRLKVLDVGTGPGFLALLFAEMGHEVTAVDISMGMLEKARNNAKTLGVKVDLFHGDAEKLPFEDCYFDLVVNKYLLWTLPQPEIAVQEWMRVLKPGGRVFAIDGNWFNPRPDKKVKRWITGVVNPDMNKNPSRSFFNEFYGPIRKALPLYEDISPENVSVVFSKMGFENTAVNPLQEAQKFKKSKLPFIQRFLRDTPIFLITGQKATE” was “failed”; that for “MDDKTAGGKIVMNKEQLLLFMENRRKQEDHRLALAKEATRSEMVDRKASGKIIMNHDQQLMFNEDHRLAVKKASRSEMVDLEGMGSEASVIMSNVPQPTSFSEDHKLAIKNIISKIVKEIRDRDHPA” was “failed”.

On to “MDDLKTRVITASVVAPFVVLCFVSYESLIGLVSAILILAGYELITLEMKERDARFFYVILLALYPVLYGLVFEEPTQPLSILFITGVVFSLITDKDPSQVFKTVAAFSIALIYVTFFLSFFLPIYRDFGAANALLVLTSTWVFDSFAYFTGLKFGRTRISPRYSPRKSLEGVIGGFLGVVIYTFLYRLVVNDLLSVNVISFRTFLPFAATVAIMDTFGDIFESALKRHYGVKDSGKTLPGHGGMLDRIDGLLFVAPVSYIVFKILEGVVR”, for which the protein production entry is “failed”. As for “MDDLNPLAGTAHLLEEVDKKLMVLLRDGRTLIGYLRSVDQFANLVLQRTIERIHVGNEYGDIPRGVFIIRGENVVLLGEIDREKEQKLPLKEISVDEILDAQRREQEQRQEKHRLVSKALKERGLAVDANIINEDFC”, the protein production entry was “failed”. With “MDDWEDEKIAPLPAKVELKSNWDDEDVDENEIKDSWEDDDDEPAQPPVINPAPEKAPKKAAPKTVEKKGKAVEVPKEAPKEKPLDPIAEKLRQQRLVEEADYRATAELFGVKDDDKNLDMFIPKSESDFLEYAEMISHRIKPYEKSYHYIALLKTIMRLSLTNMKAADVKDVASSITTIANEKLKAEKEAAAGKKKGGKKKQLIVDKANDDLVAGPYDAMDDFDFM”, the protein production entry is recorded as “failed”. To “MDEIKIEKLKKLDKKALNELIDVYMSGYEGLEEYGGEGRDYARNYIKWCWKKASDGFFVAKVGDKIVGFIVCDKDWFSKYEGRIVGAIHEFVVDKKFQGKGIGRKLLITCLDFLGKYNDTIELWVGEKNYGAMNLYEKFGFKKVGKSGIWVRMIKRQNL” belongs “not failed”; to “MDEILARAGIFQGVEPSAIAALTKQLQPVDFPRGHTVFAEGEPGDRLYIIISGKVKIGRRAPDGRENLLTIMGPSDMFGELSIFDPGPRTSSATTITEVRAVSMDRDALRSWIADRPEISEQLLRVLARRLRRTNNNLADLIFTDVPGRVAKQLLQLAQRFGTQEGGALRVTHDLTQEEIAQLVGASRETVNKALADFAHRGWIRLEGKSVLISDSERLARRAR”, “not failed”.
